Consider six molecules from paper PMC13107026, “Intestinal epithelial C/EBPβ deficiency impairs colitis-associated tumorigenesis by disrupting CXCL1/CXCL2/CXCL5-CXCR2-mediated neutrophil infiltration”.

Data set [1] has as its target T1, C/EBPβ (Homo sapiens, UniProt P17676 1-345). Briefly: competition; 100-fold molar excess vs biotin CXCL1 WT probe; LightShift Chemiluminescent EMSA kit; 6% native polyacrylamide gel, 0.5x TBE, 100 V, 60 min; binding buffer, salt, pH and temperature not stated. The following applies: protein: recombinant; chain copies: 2; label: unlabeled; blunt. In general terms: Mobility shift assays separate free from complexed probe on a gel.

In data set [2] the target is T1, C/EBPβ. Briefly: EMSA, competition, supershift; LightShift Chemiluminescent EMSA kit; 6% native polyacrylamide gel, 0.5x TBE, 100 V, 60 min; binding buffer, salt, pH and temperature not stated. As to conditions: protein: recombinant; chain copies: 2; label: biotin (5' of both strands); blunt.
Data set [3] addresses T1, C/EBPβ. Briefly: competition; 100-fold molar excess vs biotin CXCL2 WT probe; LightShift Chemiluminescent EMSA kit; 6% native polyacrylamide gel, 0.5x TBE, 100 V, 60 min; binding buffer, salt, pH and temperature not stated. As to conditions: protein: recombinant; chain copies: 2; label: unlabeled; blunt.
Data set [4] concerns the target T1, C/EBPβ. Description: competition; 100-fold molar excess vs biotin CXCL5 WT probe; LightShift Chemiluminescent EMSA kit; 6% native polyacrylamide gel, 0.5x TBE, 100 V, 60 min; binding buffer, salt, pH and temperature not stated. The following applies: protein: recombinant; chain copies: 2; label: unlabeled; blunt.

T1 sequence (P17676 whole entry): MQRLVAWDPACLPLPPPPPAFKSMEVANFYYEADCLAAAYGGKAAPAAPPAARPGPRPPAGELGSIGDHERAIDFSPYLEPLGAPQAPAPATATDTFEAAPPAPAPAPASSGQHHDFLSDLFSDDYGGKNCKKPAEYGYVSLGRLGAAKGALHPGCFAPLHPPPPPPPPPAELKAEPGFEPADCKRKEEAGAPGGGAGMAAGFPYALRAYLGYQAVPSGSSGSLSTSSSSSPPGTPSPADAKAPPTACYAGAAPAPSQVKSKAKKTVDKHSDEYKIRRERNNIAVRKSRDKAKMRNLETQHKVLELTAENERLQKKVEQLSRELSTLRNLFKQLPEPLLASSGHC

B1: CXCL1 MUT probe (dsDNA)
DNA 1: TGGAAACGGTCCCCACCCCT
DNA 2: AGGGGTGGGGACCGTTTCCA
Consider B1, for which the binding result in the data set with C/EBPβ [1] is “no binding”.

B2: CXCL1 WT probe (dsDNA)
DNA 1: TGGAACTTTCAAAATCCCCT
DNA 2: AGGGGATTTTGAAAGTTCCA
For the molecule B2, the binding result with C/EBPβ [2] was “binds”.

B3: CXCL2 WT probe (dsDNA)
DNA 1: TAGAAGTGGTGTTTCACAACCTTACTGATA
DNA 2: TATCAGTAAGGTTGTGAAACACCACTTCTA
For the molecule B3, the binding result with C/EBPβ [2] is “binds”.

B4: CXCL5 WT probe (dsDNA)
DNA 1: CACTGTCTTGCTCCATGGCAG
DNA 2: CTGCCATGGAGCAAGACAGTG
B4: the binding result in the data set with C/EBPβ [2] is given as “binds”.

B5: CXCL2 MUT probe (dsDNA)
DNA 1: TAGAAGTGGTAGGGTCTCCTCTTACTGATA
DNA 2: TATCAGTAAGAGGAGACCCTACCACTTCTA
For the molecule B5, the binding result with C/EBPβ [3] was “no binding”.

B6: CXCL5 MUT probe (dsDNA)
DNA 1: CACTGTCAATTTTTATGGCAG
DNA 2: CTGCCATAAAAATTGACAGTG
Turning to B6, the binding result in the data set with C/EBPβ [4] is “no binding”.
